Assay [1] deals with human Siglec-7 expressed on human cells (primary monocytes, dendritic cells, macrophages, NK cells, microglia, U937 cells, human cells of humanized mice) (human) (UniProt Q9Y286). Nature of the assay: FACS, human primary dendritic cells; isotype control (background). A general note: Flow cytometry measures light scatter and fluorescence of single cells or particles in a stream.

Assay [2] shares this target. In words: FACS, human primary macrophages; isotype control (background).
The target is the same in assay [3]. In words: FACS, human primary monocytes; isotype control (background).
Assay [4] has the same target. Nature of the assay: cell-based or functional assay.
Assay [5] deals with T1, Histidine-tagged human Siglec-7 (NovoProtein) (human, UniProt Q9Y286 19-357, limits assumed).
T1 construct: Bought protein; also called purified Siglec-7-his tagged protein; not shown: histidine tag
Nature of the assay: SPR (BiaCore T200, 25 C), antibody captured on anti-mouse IgG, Siglec-7-His 100 nM, single-concentration kinetics. The method, then: SPR data was collected at a rate of 10 Hz at 25′ C on a BiaCore T200 instrument. Data analysis was performed using BiaCore T200 Evaluation Software, version 2.0. HBS-EP+ (100 mM HEPES, 1.5 M NaCl, 30 mM EDTA, 0.5% v/v Surfactant P20, pH 7.4) was used as running buffer and for preparing reagents.
Mouse-derived antibodies (25 nM) against Siglec-7 were captured (60 s contact time, 30 μL/min flow rate, 0 s stabilization time) on a CM5 sensor chip (GE Healthcare) immobilized with anti-mouse IgG. Histidine-tagged human Siglec-7 (NovoProtein) was then flowed over the captured anti-Siglec-7 surface (120 s contact time, 30 μL/min flow rate, 300 s dissociation time). Concentration of antigen ranged from 5 nM to 100 nM, depending on information obtained from an initial screen. Duplicate single-concentration trials were performed and bracketed by a blank (0 nM antigen) sample. The chip surface was regenerated in between cycles using 10 mM glycine-HCl, pH1.7 (60 s contact time, 30 μL/min flow rate, 60 s stabilization time). The resulting SPR signal was obtained as the difference in response from measurements performed on a blank flow cell.
Affinity constants (KD) were calculated from the ratio kd/kₐ. For one antibody (clone 1E8), we validated the single-concentration analysis with a multiple-concentration approach (five concentrations of antigen used, plus one blank).
(SPR reads the build-up and loss of mass on a sensor chip optically.)

The target of assay [6] is T2, Siglec-7-Fc (plate immobilized) (human, UniProt Q9Y286 19-357, limits assumed).
T2 construct: also called Siglec-7-Fc protein; immobilized Siglec-7; not shown: Fc part
In words: RBC solid adhesion assay, plate-coated Siglec-7-Fc, antibody 0.5 or 1.0 ug/ml; % of RBC binding without antibody. Here is the method:
To determine which antibodies compete with ligand binding to Siglec-7, a red blood cell (RBC) solid adhesion assay was carried out in accordance with standard protocols (Kelm et al., Current Biology, 1994). Red blood cells are highly decorated with glycoproteins containing sialic acids: therefore, the ability of an antibody to block RBC binding to immobilized Siglec-7 can be used to determine ligand interference. Briefly, 5 μg/ml Siglec-7-Fc was coated overnight at RT in 96 well Immunolon plates, then washed with PBS, blocked for one hour with binding buffer (PBS containing %0.25 BSA 1 mM CaCl₂), Siglec-7 antibodies (0.5 μg/ml or 1.0 μg/ml) were bound for one hour at RT with gentle rocking. After removal of unbound antibody, red blood cells were added to each well at a concentration of 3.0×10⁶ cells per ml and incubated at RT for one hour. Unbound RBCs were then carefully washed off 3× with PBS, and water was added to each well for hypotonic lysis of bound RBCs. The plate was transferred to −80° C. for 10 minutes, followed by 37° C. for 15 minutes. Bound RBCs were detected by peroxidase activity, followed by 2N sulfuric acid to stop the reaction. Signal was detected at […]. Data was calculated as a percent of RBC binding to plate bound Siglec-7-Fc in the absence of antibody.

In assay [7] the target is T3, human Siglec-7 expressed on human cells (primary monocytes, dendritic cells, macrophages, NK cells, … (human, UniProt Q9Y286 19-467)). In words: cell-based or functional assay.
For assay [8], the target named is T3, human Siglec-7 expressed on human cells …. Nature of the assay: FACS, human primary dendritic cells, 10 ug/ml mAb. The method, then: (§1) Initial characterization of Siglec-7 antibodies involved determining their ability to bind Siglec-7 expressed on human primary monocytes, human primary macrophages, human primary dendritic cells, human primary neutrophils, and human primary natural killer (NK) cells. Cells were harvested, plated at 10⁶/ml in a 96 well plate, and incubated in 100 ul PBS containing 2% FBS, 2 mM EDTA and 10 μg/ml Mab and Fc blocking reagent for 1 hour in ice. Cells were washed twice and incubated in 100 ul PBS containing 2% FBS, 2 mM EDTA and 5 ug/ml PE-conjugated secondary antibody for 30 minutes on ice. Cells were washed twice in cold PBS and analyze by flow cytometry on a BD FACS Canto. Data analysis and calculation of MFI values was performed with FlowJo (TreeStar) software version 10.0.7.
(§2) Percent positive binding and mean fluorescent intensity (MFI) values for cell types bound by Siglec-7 antibodies are listed in Table 4A. Binding is compared to an isotype control. The antibodies bind to human primary monocytes, human primary dendritic cells, and human primary macrophages. In Table 4A, “Buffer” refers to cells that were treated only with the PBS buffer described supra; “Secondary Ab” refers to cells that were treated only with the PE-conjugated secondary antibody; “mIgG1,” “mIgG2a,” and “mIgG2b” refer to isotype control antibodies; and “RDS7” refers to commerically available anti-Siglec-7 antibody Mab1138 (R&D Systems; Cat. No. MAB 1138).

Assay [9] has the same target. Nature of the assay: FACS, human primary monocytes, 10 ug/ml mAb. Here is the method:
as §1, §2

The target is the same in assay [10]. Nature of the assay: cell-based or functional assay. The source holds these as a separate data set.
For assay [11] the target is unchanged. In words: FACS, human primary macrophages, 10 ug/ml mAb. The method, then:
as §1, §2

T2 sequence (Q9Y286 19-357 limits assumed): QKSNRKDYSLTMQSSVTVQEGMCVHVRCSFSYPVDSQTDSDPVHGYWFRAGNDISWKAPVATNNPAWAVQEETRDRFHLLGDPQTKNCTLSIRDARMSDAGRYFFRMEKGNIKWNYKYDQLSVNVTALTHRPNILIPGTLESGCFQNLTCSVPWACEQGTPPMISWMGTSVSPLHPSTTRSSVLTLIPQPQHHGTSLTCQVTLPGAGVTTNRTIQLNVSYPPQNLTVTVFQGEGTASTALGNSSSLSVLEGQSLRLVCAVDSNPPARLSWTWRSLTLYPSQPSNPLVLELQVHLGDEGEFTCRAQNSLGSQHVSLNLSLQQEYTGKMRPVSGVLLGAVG
T1 sequence (Q9Y286 19-357 limits assumed): as above
T3 sequence (Q9Y286 19-467): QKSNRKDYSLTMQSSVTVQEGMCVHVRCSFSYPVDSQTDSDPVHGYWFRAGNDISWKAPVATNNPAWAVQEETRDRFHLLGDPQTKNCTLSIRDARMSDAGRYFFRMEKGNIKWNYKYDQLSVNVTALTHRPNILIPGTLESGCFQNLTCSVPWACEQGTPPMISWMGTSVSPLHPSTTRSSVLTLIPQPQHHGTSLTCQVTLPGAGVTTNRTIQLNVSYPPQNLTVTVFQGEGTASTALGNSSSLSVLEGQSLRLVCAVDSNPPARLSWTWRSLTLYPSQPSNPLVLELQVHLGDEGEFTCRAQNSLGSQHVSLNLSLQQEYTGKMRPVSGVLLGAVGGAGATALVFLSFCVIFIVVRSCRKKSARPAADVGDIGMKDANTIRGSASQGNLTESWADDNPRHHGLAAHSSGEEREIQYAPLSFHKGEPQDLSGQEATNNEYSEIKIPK
human Siglec-7 expressed on human cells (primary monocytes, dendritic cells, macrophages, NK cells, microglia, U937 cells, human cells of humanized mice) (human), sequence (Q9Y286 19-467): as above

As to mIgG2a isotype control antibody, in assay [1], the % Positive turned out to be 4.5% and the MFI is 134. In addition, in assay [2], the % Positive was 35.8% and the MFI is 648. In assay [3], the % Positive was 14% and the MFI turned out to be 141. In [4], the Percent Siglec-7 Surface Expression, DCs was determined as 100%; the Percent Siglec-7 Surface Expression, Macrophages was 100%; the Percent Siglec-7 Surface Expression, Microglia was 84.2%; the Percent Siglec-7 Surface Expression, Monocytes is 99.4%. In [4], this molecule yielded a Percent Siglec-7 Surface Expression, NK cells of 101% and a Percent Siglec-7 Surface Expression, U937 cells of 99.8%.

B1: anti-Siglec-7 antibody 1A12 (antibody, V domains shown)
VH: QVQLQQSGSELRSPGSSVKLSCKDFDSEVFPITYMNWVRQKPGHGFEWIGDILPSIGRTMYGEKFEDKATLDADTVSNTAYLELNSLTSEDSAIYYCARSEGYLLAYWGQGTLVTVSA
VL: DVZMTQTPLSLPVSLGDQASISCRSSQSLVHSTGNTYLHWYLQKPGQSPKLLIYKVSNRFSGVPDRFSGSGAGTDFTLKISRVEAEDLGVYFCSQNTHVPYTFGGGTKLEIK
notes: also called 1Al2
Broadly, the Kd is the equilibrium constant for the complex coming apart. High values mean lower affinity, low ones higher affinity. As to B1, the Kd in assay [5] turned out to be 0.6 nM. For the same molecule, the “Percent RBC Binding to Siglec-7” value in assay [6] worked out at 16.5%. Also, in assay [7], the “Percent Siglec-7 Surface Expression, Macrophages” value worked out at 13.4%; the “Percent Siglec-7 Surface Expression, Microglia” value stood at 28.6%; the “Percent Siglec-7 Surface Expression, NK cells” value was determined as 136%. Moreover, in assay [8], the “% Positive” value was found to be 99.7% and the MFI turned out to be 6090. In addition, in assay [9], the “% Positive” value is 99.3% and the MFI turned out to be 505. For the same molecule, in assay [10], the “Percent Siglec-7 Surface Expression, DCs” value was determined as 100%; the “Percent Siglec-7 Surface Expression, Monocytes” value is 39.9%; the “Percent Siglec-7 Surface Expression, U937 cells” value is 87.3%. Moreover, in assay [11], the “% Positive” value was determined as 99.4% and the MFI worked out at 15800.

B2: anti-Siglec-7 antibody 4D7 (antibody, V domains shown)
VH: QVQLQQSGAELVKPGASVKLSCKTSGYTFTNYWINWVKQRPGQGLEWIGNIYSGSSRTNYNEKFKSKATLTVDTSSSTAYMQLSSLTSDDSAVYYCAREGLRAMDYWGQGTSVTVSS
VL: NZMTQFQKFMSTSVGDRVSLTCKASQKVGTNVAGFQQKPGHSPKAGIYSASTRHRGVQDRFTARGLGSDFILPITTZQLEDLAEYZCHQGNSVQYTFGGGTKLEIK
notes: Variable domains assembled from FR and CDR entries
B2 yielded a Kd in assay [5] of 2.9 nM. The “Percent RBC Binding to Siglec-7” value in [6] was determined as 96.5%. Moreover, in [7], the “Percent Siglec-7 Surface Expression, Macrophages” value stood at 24.1%; the “Percent Siglec-7 Surface Expression, Microglia” value turned out to be 44.3%; the “Percent Siglec-7 Surface Expression, NK cells” value stood at 87.6%. For the same molecule, in assay [8], the “% Positive” value stood at 26.1% and the MFI came to 250. Also, in assay [9], the “% Positive” value is 90.5% and the MFI was determined as 262. Also, in assay [10], the “Percent Siglec-7 Surface Expression, DCs” value was 73.3%; the “Percent Siglec-7 Surface Expression, Monocytes” value amounted to 33.9%; the “Percent Siglec-7 Surface Expression, U937 cells” value came out at 84.7%. For the same molecule, in assay [11], the “% Positive” value is 99.4% and the MFI turned out to be 4260.

B3: anti-Siglec-7 antibody 7E11 (antibody, V domains shown)
VH: QVQLKQSGPVLVAPSQSLSITCTVSGFSLSNYGVHWVRQFPGKGLEWLGVIWAGGITNYNSVLMSRLSISKDNSKSQVFLKMNSLQTDDTAMYYCAKQGGTSFSYWGQGTLVTVSA
VL: DIQMTQSPASQSASLGESVTITCLASQTIGTWLAWYQQKPGKSPQLLIYAATSLADGVPSRFSGSGSGTKFSFKISSLQAEDFVSYYCQQLYSTPYTFGGGTKLEIK
notes: as for B2
Consider B3, for which binding in [5] was put at a Kd of 9.5 nM. Moreover, the “Percent RBC Binding to Siglec-7” value in assay [6] came to 89.3%. In assay [7], the “Percent Siglec-7 Surface Expression, Macrophages” value came out at 5.7%; the “Percent Siglec-7 Surface Expression, Microglia” value is 11.5%; the “Percent Siglec-7 Surface Expression, NK cells” value is 50.7%. Moreover, in assay [8], the “% Positive” value is 98.4% and the MFI turned out to be 845. In addition, in assay [9], the “% Positive” value is 93.3% and the MFI came to 278. In assay [10], the “Percent Siglec-7 Surface Expression, DCs” value came to 19.3%; the “Percent Siglec-7 Surface Expression, Monocytes” value turned out to be 8.1%; the “Percent Siglec-7 Surface Expression, U937 cells” value amounted to 75.2%. Also, in assay [11], the “% Positive” value came to 99.8% and the MFI was 2380.

The values above are taken from patent US20200277374A1 (Alector, published 2020).
